Assay results published in US20050054569A1, “Mutants and assay system to identify USP/RXR ligands” (published 2005).
Numbering of substitutions follows the chain as printed. Names and notes keep the numbering of the source.

Tests used:
USP C472A/H475L = biological target: T1, USP C472A/H475L (Drosophila melanogaster, UniProt P20153 SEQ:1-508, C472A/H475L); test: competition; 100x nonself competitor, specificity control; details: tags: His-tag, pET32EK (Novagen); chain copies: monomer and homodimer (stated)
T1 sequence: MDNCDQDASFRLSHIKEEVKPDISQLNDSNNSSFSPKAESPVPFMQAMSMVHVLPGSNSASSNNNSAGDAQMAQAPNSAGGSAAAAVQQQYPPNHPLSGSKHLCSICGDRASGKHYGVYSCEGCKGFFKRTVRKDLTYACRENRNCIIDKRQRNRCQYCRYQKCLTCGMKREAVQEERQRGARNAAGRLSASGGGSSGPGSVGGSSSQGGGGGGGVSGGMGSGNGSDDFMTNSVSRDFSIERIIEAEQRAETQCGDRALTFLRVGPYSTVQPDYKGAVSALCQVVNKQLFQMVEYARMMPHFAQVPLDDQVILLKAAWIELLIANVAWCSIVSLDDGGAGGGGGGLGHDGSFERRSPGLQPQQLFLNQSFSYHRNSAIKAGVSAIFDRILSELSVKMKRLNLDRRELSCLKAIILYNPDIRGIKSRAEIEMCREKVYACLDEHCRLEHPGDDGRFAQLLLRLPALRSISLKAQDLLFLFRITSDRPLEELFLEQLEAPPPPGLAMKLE
Procedure: (§1) Control competitions with self and nonself unlabelled excess probes confirmed the specificity of binding. […] (B) The homodimer-enriched fraction of each receptor preparation was then analyzed for binding to […] methyl epoxyfarnesoate, using an intrinsic fluorescence assay method that tracks ligand binding (by suppression in receptor fluorescence) Jones et al., (2000) Insect Biochem. Mol. Biol. 30, 671-679; Jones et al. (2001), Insect Biochem. Mol. Biol. 32, 33-49. […] Arrows show time of addition of methyl epoxyfarnesoate or EtOH carrier.
(§2) Nuclear extracts were isolated from Sf9 cells as previously described Jones et al. (2001) Insect Biochem. Mol. Biol. 32, 33-49; Jones et al (1998) Biochem. J. 335, 79-84; 79-84; Jones et al. (2000) Biochem. J. 346, 233-240. For the DR12 probe, the double stranded DR12 oligonucleotide (sequence as shown above) was 5′ end-labelled with ³²P by T4 polynucleotide kinase (New England Biolabs Inc.), and then purified from a 20% native polyacrylamide gel. The same double stranded DR12 oligonucleotide was used in 100-fold excess as a self competitor. For the 4DR12Core probe, the 4DR12Core sequence was liberated from the vector as a 148-bp ClaI/HindIII fragment, and was 5′ end-labelled with ³²P and purified. The same, unlabelled fragment was used at 100-fold excess as a self competitor. […]

[1] = biological target: T2, USP (ultraspiracle) wild-type (Drosophila melanogaster, UniProt P20153 SEQ:1-508); test: as above; details: tags: His-tag, pET32EK (Novagen); chain copies: monomer and homodimer (stated)
T2 sequence: T1 sequence with A472C, L475H
Procedure: as §1, §2

[2] = biological target: the molecule itself; test: dimerisation, gel mobility shift on DR12 probe (not shown)
[3] = biological target: the molecule itself; test: homodimerisation, gel mobility shift on 4DR12 probe; bands assigned with Superdex 200 fractions
Excerpt: Arrows show time of addition of methyl epoxyfarnesoate or EtOH carrier.
Nuclear extracts were isolated from Sf9 cells as previously described Jones et al. (2001) Insect Biochem. Mol. Biol. 32, 33-49; Jones et al (1998) Biochem. J. 335, 79-84; 79-84; Jones et al. (2000) Biochem. J. 346, 233-240. For the DR12 probe, the double stranded DR12 oligonucleotide (sequence as shown above) was 5′ end-labelled with ³²P by T4 polynucleotide kinase (New England Biolabs Inc.), and then purified from a 20% native polyacrylamide gel. The same double stranded DR12 oligonucleotide was used in 100-fold excess as a self competitor. For the 4DR12Core probe, the 4DR12Core sequence was liberated from the vector as a 148-bp ClaI/HindIII fragment, and was 5′ end-labelled with ³²P and purified. The same, unlabelled fragment was used at 100-fold excess as a self competitor. As a negative control for specificity in gel shifts, the 36 bp BglII/KpnI polylinker region fragment of the pGL3 vector was liberated and recovered from low melting point agarose gels and used as a 100 nonself competitor (sequence: […], SEQ ID NO: 17). […]

B1: pGL3 polylinker (nonself) (dsDNA)
DNA 1: GGTACCGAGCTCTTACGCGTGCTAGCCCGGGCTCGA
DNA 2: TCGAGCCCGGGCTAGCACGCGTAAGAGCTCGGTACC
Does B1 bind (USP C472A/H475L)?
Result: no binding

Does B1 bind [1]?
Result: no binding

B2: His-tagged wild-type Drosophila melanogaster USP (bacterially overexpressed) (receptor)
chain: T1 sequence with A472C, L475H
notes: Full-length dUSP cloned into pET32EK, purified on nickel resin and Superdex 200; also called wild-type dUSP; His-dUSP fusion protein; not shown: His tag / fusion part from the vector pET32EK
Does B2 bind [2]?
Result: binds

B3: His-tagged mutant dUSP Cys472Ala/His475Leu (bacterially overexpressed) (receptor)
chain: T1 sequence
notes: also called C472A/H475L; double mutant dUSP; not shown: His tag / fusion part from the vector pET32EK
Does B3 bind [3]?
Result: binds

B4: P498W/P499W mutant USP (receptor, not shown: small tags and cut ends)
chain: T1 sequence with A472C, L475H, P498W, P499W
notes: Two prolines at the end of alpha-helix 12 replaced by tryptophan
Does B4 bind [2]?
Result: binds
